According to PMC7835349 (Communications Biology, 2021):
Values joined by “and” are separate entries in the source; they are usually repeats but may differ in a detail not shown here. Equal values may be shown once.

Tests used:
[1] = In vitro release of AZD4320 from conjugate in rat plasma with 5% HEPES, 37 °C (Fig S8); type: in vitro ADME; conditions: Rat Plasma 37 °C
Experimental: AZD4320 loading was quantified by 1H NMR spectroscopy. […]
conjugated AZD4320 peak areas. […]
AZD4320 conjugated dendrimer in plasma
Supplementary Figure 8. Comparison and release rate in plasma and buffer. Cumulative in vitro release of AZD4320 measured over time from AZD4320-dendrimer conjugate SPL8977) in phosphate buffered saline (purple circles, n=3) and rat plasma (green squares, n=2) and fit to first order model at 37 °C (n=2) […]

[2] = Body weight and tolerability in RS4;11 xenograft mice; type: in vivo, C.B-17 SCID mouse; conditions: for Percentage Body Weight Change post Dosing: single animals
Experimental: Female C.B.−17 SCID mice were purchased from Charles River Laboratories. Mice were 5–8 weeks old at the time of tumour implantation. All xenograft studies were conducted at our Association for the Assessment and Accreditation of Laboratory Animal Care accredited facility in Waltham, MA in accordance with ethical regulations described in the guidelines established by the internal Institutional Animal Care and Use Committee. The dendrimer conjugates were formulated in citrate/phosphate buffer pH 5.0, diluted 1:10 with 5% glucose containing 1% w/v Kolliphor HS15, and AZD4320 was formulated in 30% HP-β-CD and dosed as a weekly intravenous (IV) administration at a volume of 5 ml/kg at the indicated doses. Five million RS4;11, five million SUDHL-4 or five million OCI-LY-10 cells were injected subcutaneously in the right flank of mice in a volume of 0.1 ml. Tumour volumes (measured by caliper), animal body weight, and tumor condition were recorded twice weekly for the duration of the study. The tumour volume was calculated (taking length to be the longest diameter across the tumour and width to be the corresponding perpendicular diameter) using the formula: length (mm) x width (mm)^2/0.52. For efficacy studies, mice were randomized based on tumour volumes using stratified sampling and enrolled into control and treatment groups. Tumour growth inhibition from the start of treatment was quantified by measuring the difference in tumour volume between control and treated groups. Survival analysis was evaluated using Mantel-Cox test. Tumours were also taken for bioanalysis. […]
Supplementary Figure 13. Percent total body weight change in mouse RS4;11 xenograft model (n=6). Percent change in body weight of mice measured twice weekly after start of treatment with various doses of AZD0466. […]

platelets = assay: Platelet count in dogs; type: in vivo; conditions: dog, weekly ascending doses

In the case of AZD4320-MIDA-PEG2100 [AZD0466], the “Cummulative Release %” value ([1]; 1.06 h, Replicate 1) is reported as 2.56%, the “Cummulative Release %” value ([1]; 1.24 h, Replicate 2) is reported as 3.28% and the “Cummulative Release %” value ([1]; 5.87 h, Replicate 1) is reported as 9.61%. For the same substance, the “Cummulative Release %” value ([1]; 6.04 h, Replicate 2) was 11.99%, the “Cummulative Release %” value ([1]; 10.67 h, Replicate 1) was 18.75% and the “Cummulative Release %” value ([1]; 10.85 h, Replicate 2) was 23.05%. For the same substance, the “Cummulative Release %” value ([1]; 15.47 h, Replicate 1) was 27.34%, the “Cummulative Release %” value ([1]; 15.65 h, Replicate 2) was 32.24% and the “Cummulative Release %” value ([1]; 20.27 h, Replicate 1) was 39.17%. For the same substance, the “Cummulative Release %” value ([1]; 20.45 h, Replicate 2) was 41.44%, the “Percentage Body Weight Change post Dosing” value ([2]; 10 mg/kg (3mg/kg AZD4320), day 41 post implant) was 0% and the “Percentage Body Weight Change post Dosing” value ([2]; 10 mg/kg (3mg/kg AZD4320), day 44 post implant) was -1.896% and 0% and -3.365% and -4.5045% and -0.9756% and 0.4739%. For the same substance, the “Percentage Body Weight Change post Dosing” value ([2]; 10 mg/kg (3mg/kg AZD4320), day 48 post implant) was 2.37% and 2.899% and -4.327% and 0% (2×) and -0.9479%, the “Percentage Body Weight Change post Dosing” value ([2]; 10 mg/kg (3mg/kg AZD4320), day 51 post implant) was -2.8436% and -2.415% and -3.365% and -4.054% and -0.9756% and -3.318% and the “Percentage Body Weight Change post Dosing” value ([2]; 10 mg/kg (3mg/kg AZD4320), day 55 post implant) was 1.4218% and 2.415% and -1.923% and 0.9009% and 1.951% and 0.4739%. For the same substance, the “Percentage Body Weight Change post Dosing” value ([2]; 10 mg/kg (3mg/kg AZD4320), day 58 post implant) was -0.9479% and -0.4831% and -2.885% and 0% and 2.927% and 0.4739%, the “Percentage Body Weight Change post Dosing” value ([2]; 10 mg/kg (3mg/kg AZD4320), day 63 post implant) was 5.6872% and 4.831% and -0.9615% and 3.6036% and 7.317% and 2.8436% and the “Percentage Body Weight Change post Dosing” value ([2]; 10 mg/kg (3mg/kg AZD4320), day 66 post implant) was 4.2654% and 2.415% and -4.327% and 0.4505% and 3.415% and -1.4218%. For the same substance, the “Percentage Body Weight Change post Dosing” value ([2]; 10 mg/kg (3mg/kg AZD4320), day 70 post implant) was 2.8436% and 1.449% and -1.923% and 3.153% and 5.366% and 0.9479%, the “Percentage Body Weight Change post Dosing” value ([2]; 10 mg/kg (3mg/kg AZD4320), day 73 post implant) was 3.318% and 7.246% and -1.442% and 1.8018% and 6.829% and 0% and the “Percentage Body Weight Change post Dosing” value ([2]; 10 mg/kg (3mg/kg AZD4320), day 77 post implant) was 3.791% and 4.348% and -2.404% and 2.7027% and 5.854% and 0%. The “Percentage Body Weight Change post Dosing” value ([2]; 10 mg/kg (3mg/kg AZD4320), day 80 post implant) was 7.109% and 6.763% and 2.404% and 9.268% and 2.8436%, the “Percentage Body Weight Change post Dosing” value ([2]; 10 mg/kg (3mg/kg AZD4320), day 83 post implant) was 6.635% and 1.932% and 1.923% and 8.78% and 1.4218% and the “Percentage Body Weight Change post Dosing” value ([2]; 34 mg/kg (10mg/kg AZD4320), day 41 post implant) was 0%. The “Percentage Body Weight Change post Dosing” value ([2]; 34 mg/kg (10mg/kg AZD4320), day 44 post implant) was -0.9346% and -3.922% and -3.6036% and -0.5155% and -2.427% and -2.913%, the “Percentage Body Weight Change post Dosing” value ([2]; 34 mg/kg (10mg/kg AZD4320), day 48 post implant) was -2.336% and -1.471% and -2.252% and -1.546% and 0% and -1.456% and the “Percentage Body Weight Change post Dosing” value ([2]; 34 mg/kg (10mg/kg AZD4320), day 51 post implant) was -2.804% and -6.373% and -5.405% and -1.031% and -4.369% and -1.942%. For the same substance, the “Percentage Body Weight Change post Dosing” value ([2]; 34 mg/kg (10mg/kg AZD4320), day 55 post implant) was -1.869% and -0.4902% and -2.252% and 1.031% and -1.942% and -0.9709%, the “Percentage Body Weight Change post Dosing” value ([2]; 34 mg/kg (10mg/kg AZD4320), day 58 post implant) was -1.402% and -3.431% and -3.153% and 1.546% and -2.913% and -0.9709% and the “Percentage Body Weight Change post Dosing” value ([2]; 34 mg/kg (10mg/kg AZD4320), day 63 post implant) was 2.336% and -2.451% and 0% and 5.361% and 1.942% and 6.311%. For the same substance, the “Percentage Body Weight Change post Dosing” value ([2]; 34 mg/kg (10mg/kg AZD4320), day 66 post implant) was -2.336% and -4.412% and 0% and 1.031% and 1.456% and 6.796%, the “Percentage Body Weight Change post Dosing” value ([2]; 34 mg/kg (10mg/kg AZD4320), day 70 post implant) was -0.9346% and -5.392% and 0.4505% and 2.062% and 2.913% and 2.427% and the “Percentage Body Weight Change post Dosing” value ([2]; 34 mg/kg (10mg/kg AZD4320), day 73 post implant) was 2.336% and -3.431% and 2.252% and 1.546% and 3.883% and 3.398%. The “Percentage Body Weight Change post Dosing” value ([2]; 34 mg/kg (10mg/kg AZD4320), day 77 post implant) was 3.271% and -3.922% and 1.351% and 3.093% and 2.913% and 2.427%, the “Percentage Body Weight Change post Dosing” value ([2]; 34 mg/kg (10mg/kg AZD4320), day 80 post implant) was 4.6729% and -1.471% and 7.207% and 5.155% and 3.883% and 6.796% and the “Percentage Body Weight Change post Dosing” value ([2]; 34 mg/kg (10mg/kg AZD4320), day 83 post implant) was 4.206% and -1.961% and 7.658% and 4.639% and 4.854% and 9.709%. The “Percentage Body Weight Change post Dosing” value ([2]; 103 mg/kg (30mg/kg AZD4320), day 41 post implant) was 0%, the “Percentage Body Weight Change post Dosing” value ([2]; 103 mg/kg (30mg/kg AZD4320), day 44 post implant) was -2.415% and -9.211% and -6.161% and -5.804% and 0% and -2% and the “Percentage Body Weight Change post Dosing” value ([2]; 103 mg/kg (30mg/kg AZD4320), day 48 post implant) was -0.9662% and -3.509% and -6.161% and -4.464% and -1.415% and -2.5%. The “Percentage Body Weight Change post Dosing” value ([2]; 103 mg/kg (30mg/kg AZD4320), day 51 post implant) was -1.449% and -4.386% and -7.109% and -5.357% and -2.83% and -4%, the “Percentage Body Weight Change post Dosing” value ([2]; 103 mg/kg (30mg/kg AZD4320), day 55 post implant) was 0.4831% and -0.4386% and -5.213% and -3.125% and 0% and -3.5% and the “Percentage Body Weight Change post Dosing” value ([2]; 103 mg/kg (30mg/kg AZD4320), day 58 post implant) was -0.9662% and -1.754% and -5.213% and -4.464% and -0.9434% and -5.5%. The “Percentage Body Weight Change post Dosing” value ([2]; 103 mg/kg (30mg/kg AZD4320), day 63 post implant) was 0.4831% and 1.842% and -3.791% and -2.232% and -1.887% and -2%, the “Percentage Body Weight Change post Dosing” value ([2]; 103 mg/kg (30mg/kg AZD4320), day 66 post implant) was -1.932% and -0.4386% and -4.2654% and -2.679% and -0.9434% and -2.5% and the “Percentage Body Weight Change post Dosing” value ([2]; 103 mg/kg (30mg/kg AZD4320), day 70 post implant) was -1.449% and 0.4386% and -3.318% and -1.786% and -0.9434% and -8%. The “Percentage Body Weight Change post Dosing” value ([2]; 103 mg/kg (30mg/kg AZD4320), day 73 post implant) was 0.4831% and 1.316% and -1.896% and -4.018% and -2.83% and -4%, the “Percentage Body Weight Change post Dosing” value ([2]; 103 mg/kg (30mg/kg AZD4320), day 77 post implant) was 0.4831% and 1.316% and 0% (2×) and -2.679% and -4% and the “Percentage Body Weight Change post Dosing” value ([2]; 103 mg/kg (30mg/kg AZD4320), day 80 post implant) was 4.348% and 1.754% and 2.8436% and -1.786% and 0.4717% and -3%. The “Percentage Body Weight Change post Dosing” value ([2]; 103 mg/kg (30mg/kg AZD4320), day 83 post implant) was 2.415% and 3.509% and 4.2654% and -2.232% and 0.4717% and -2%, the “tolerability in xenograft mice” value ([2]; RS4;11 xenograft, all doses) was “well tolerated” and the “effect on platelet count” value (platelets) was “reversible and dose-dependent decrease in platelet count”.
